According to article PMC11549327 (Nature Communications, 2024):

Molecular target: the molecule itself
Test: cryo-EM structure

B1: E. coli ClpP-His6 (tetradecamer) (enzyme)
chain: not shown
stoichiometry N: 14
